# Measurements published in IntAct's records for PubMed 10913138.
# B1: Protein S100-B (Homo sapiens), P04271 (parent)
# chain: MSELEKAMVALIDVFHQYSGREGDKHKLKKSELKELINNELSHFLEEIKEQEVVDKVMETLDNDGDGECDFQEFMAFVAMVTTACHEFFEHE
# B2: Protein S100-B (Homo sapiens), P04271 (parent)
# chain: B1 chain
# partner: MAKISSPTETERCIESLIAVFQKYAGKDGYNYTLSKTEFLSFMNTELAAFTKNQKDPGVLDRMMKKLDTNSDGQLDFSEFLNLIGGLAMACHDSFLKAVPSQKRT
# Variants of: B1
# Settings: with S100A6, P06703
row,Variant,effect of a mutation on the interaction
1,MSELEKAMVALIDVFHQYSGREGDKHKLKKSELKELINNELSHFLEEIKEQEVVDKVMETLDNDGDGECDFQEFMAFVAMVTTACHEAFEHE [F88A],decreasing interaction

# Variants of: B1
# Settings: with S100A6, P06703
# Remark: another data set of the same source
row,Variant,effect of a mutation on the interaction
1,MSELEKAMVALIDVFHQYSGREGDKHKLKKSELKELINNELSHFLEEIKEQEVVDKVMETLDNDGDGECDFQEFMAFVAMVTTACHEFAEHE [F89A],decreasing interaction

# Variants of: B2
# Settings: with S100A11, P31949
row,Variant,effect of a mutation on the interaction
1,MSELEKAMVALIDVFHQYSGREGDKHKLKKSELKELINNELSHFLEEIKEQEVVDKVMETLDNDGDGECDFQEFMAFVAMVTTACHEFAEHE [F89A],decreasing interaction
